By pEC50 is commonly meant the EC50 on a negative log10 scale, so that one unit is a factor of ten. The low end stands for a large EC50, the high end for a small EC50.

Results on 2 substances are retold here after US20190040151A1.

For test [1], the target named is HER2 on the surface of N87 (NCI-N87) human gastric carcinoma cells (human) (UniProt P04626). The test is described as follows: cell-based or functional assay.
For test [2], the target named is HER2-ECD (human epidermal growth factor receptor 2-extracellular domain) (human) (UniProt P04626).

pEC50: −log10 of the molar value.

In test [1], “IgG1(trastuzumab)-AL1-PE38KDEL (antibody)” showed an IC50 (pM), cytotoxicity on N87 cells (WST-1) of 498 pM.
In the case of scFv(trastuzumab)-PE38KDEL, in test [2], the pEC50 was 9.82.
